One block for each binder: values may come before it.
Legend:
[1] = biological target: T1, human CTLA-4 protein (Acro, Catalog No. CT4-H52H9) (human, UniProt P16410 36-161); experiment: ELISA, plate coated with human CTLA-4 protein
T1 construct: Bought protein

[2] = biological target: T2, human PD-1 on the cell surface (human, UniProt Q15116 25-288); experiment: flow cytometry competition, 293T-hPD-1 cells, biotin-human PD-L1
T2 construct: whole, on cells; also called cell surface PD-1

[3] = biological target: T3, Biotinylated Human VEGF165 (Acro, Catalog No. VE5-H82Q0) (human, UniProt P15692-4 27-191, biotinylated (site not stated)); experiment: flow cytometry: antibody titrated on 293T-hPD-1-hCTLA-4 cells, detected with 2 ug/mL biotin-hVEGF165 and PE streptavidin
T3 construct: Bought protein; also called Biotinylated-hVEGF165; Biotin-hVEGF165
Method: After centrifugation at 300 g for 5 minutes, the supernatant was discarded, and 100 μL of trispecific antibody solution serially diluted 3-fold with FACS buffer was added, with a starting concentration of 200 nM, and the same volume of FACS buffer was added as a negative control. After mixing, incubated at 4° C. for 60 minutes. After centrifugation and washing three times with FACS buffer, 2 μg/mL Biotin-hVEGF165 was added at 100 μL/well and incubated at 4° C. for 60 minutes. After centrifugation and washing three times with FACS buffer, 100 μL/well of 1:800 diluted PE Streptavidin (BD, Catalog No.: 554061) was added and incubated at 4° C. for 50 minutes. After centrifugation and washing three times with FACS buffer, 100 μL/well of FACS buffer was added to resuspend the cells, and the fluorescence signal was detected on a flow cytometer (BECKMAN COULTER cytoFLEX). The binding activity was fitted using a four-parameter model, and the EC₅₀ value of each antibody binding was calculated.

[4] = biological target: T4, human CTLA-4 on the cell surface (human, UniProt P16410 36-223); experiment: flow cytometry competition, 293T-hPD-1-hCTLA-4 cells (PD-1 co-expressed), biotin-human CD80
T4 construct: whole, on cells; also called CHO-hCTLA-4 cells; CHOK1-hCTLA4 cells

[5] = biological target: T2, human PD-1 on the cell surface; experiment: flow cytometry, 293T-hPD-1 cells, batch FACS#1
Method: After centrifugation at 300 g for 5 minutes, the supernatant was discarded. The antibodies were serially diluted 3-fold with FACS buffer to obtain two gradient series solution FACS #1 and FACS #2, with the starting concentration of 200 nM (Table 5, FACS #1) or 100 nM (Table 5, FACS #2, FIG. 2), respectively. Then 100 μL/well was added to a 96-well plate in triplicate, mixed, and incubated at 4° C. for 60 min. The plate was centrifuged and washed three times with FACS buffer. 100 μL/well of 1:800 diluted AF647-anti-hIgG(H+L) (Jackson, Catalog No.: 109-605-003) was added and incubated at 4° C. for 50 minutes. After washing the plate three times with FACS buffer, 100 μL/well of FACS buffer was added to resuspend the cells, and the fluorescence signal was detected on a flow cytometer (BECKMAN COULTER cytoFLEX). The binding activity was fitted using a four-parameter model to calculate the EC₅₀ value of each antibody binding to PD-1.

[6] = biological target: T5, human PD-1 protein (Acro, Catalog No. PD1-H5221) (human, UniProt Q15116 25-167); experiment: ELISA, plate coated with human PD-1 protein
T5 construct: Bought protein; also called human PD1-his; not shown: his tag
T5 sequence (Q15116 25-167 limits assumed): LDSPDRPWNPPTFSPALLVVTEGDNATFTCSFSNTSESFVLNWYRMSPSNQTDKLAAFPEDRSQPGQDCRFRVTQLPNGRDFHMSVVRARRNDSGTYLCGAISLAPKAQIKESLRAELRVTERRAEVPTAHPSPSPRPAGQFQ

T2 sequence (Q15116 25-288): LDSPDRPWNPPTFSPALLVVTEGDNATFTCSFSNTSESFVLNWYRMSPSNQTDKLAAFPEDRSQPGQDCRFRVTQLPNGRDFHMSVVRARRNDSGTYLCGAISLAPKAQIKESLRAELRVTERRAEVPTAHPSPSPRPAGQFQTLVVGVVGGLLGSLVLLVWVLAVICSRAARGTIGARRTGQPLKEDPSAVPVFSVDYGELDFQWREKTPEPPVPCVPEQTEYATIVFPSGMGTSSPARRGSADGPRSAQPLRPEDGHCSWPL
T3 sequence (P15692 other isoform, or with tags, fused parts or gaps limits assumed): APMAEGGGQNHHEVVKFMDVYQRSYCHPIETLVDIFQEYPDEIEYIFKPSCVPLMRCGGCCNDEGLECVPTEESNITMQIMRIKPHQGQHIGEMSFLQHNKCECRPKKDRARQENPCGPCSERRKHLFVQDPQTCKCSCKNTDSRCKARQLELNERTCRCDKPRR
T4 sequence (P16410 36-223): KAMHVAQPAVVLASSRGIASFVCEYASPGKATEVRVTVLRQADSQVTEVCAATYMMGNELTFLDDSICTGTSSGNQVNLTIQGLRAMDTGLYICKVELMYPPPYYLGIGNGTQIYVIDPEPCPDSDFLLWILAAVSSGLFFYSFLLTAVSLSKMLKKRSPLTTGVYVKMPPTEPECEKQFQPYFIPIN
T1 sequence (P16410 36-161 limits assumed): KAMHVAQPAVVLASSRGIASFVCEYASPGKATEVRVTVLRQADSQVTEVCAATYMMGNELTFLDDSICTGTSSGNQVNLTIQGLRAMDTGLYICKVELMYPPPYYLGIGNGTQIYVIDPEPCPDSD

EC50 [1]: 0.031 nM
IC50 [2]: 5 nM
EC50 [3]: 4.2 nM
IC50 [4]: ~0.002 nM
EC50 [5]: 3.53 nM
EC50 [6]: 0.082 nM
B1: HC010-F9 (trispecific antibody, human IgG4 S228P, kappa)
heavy: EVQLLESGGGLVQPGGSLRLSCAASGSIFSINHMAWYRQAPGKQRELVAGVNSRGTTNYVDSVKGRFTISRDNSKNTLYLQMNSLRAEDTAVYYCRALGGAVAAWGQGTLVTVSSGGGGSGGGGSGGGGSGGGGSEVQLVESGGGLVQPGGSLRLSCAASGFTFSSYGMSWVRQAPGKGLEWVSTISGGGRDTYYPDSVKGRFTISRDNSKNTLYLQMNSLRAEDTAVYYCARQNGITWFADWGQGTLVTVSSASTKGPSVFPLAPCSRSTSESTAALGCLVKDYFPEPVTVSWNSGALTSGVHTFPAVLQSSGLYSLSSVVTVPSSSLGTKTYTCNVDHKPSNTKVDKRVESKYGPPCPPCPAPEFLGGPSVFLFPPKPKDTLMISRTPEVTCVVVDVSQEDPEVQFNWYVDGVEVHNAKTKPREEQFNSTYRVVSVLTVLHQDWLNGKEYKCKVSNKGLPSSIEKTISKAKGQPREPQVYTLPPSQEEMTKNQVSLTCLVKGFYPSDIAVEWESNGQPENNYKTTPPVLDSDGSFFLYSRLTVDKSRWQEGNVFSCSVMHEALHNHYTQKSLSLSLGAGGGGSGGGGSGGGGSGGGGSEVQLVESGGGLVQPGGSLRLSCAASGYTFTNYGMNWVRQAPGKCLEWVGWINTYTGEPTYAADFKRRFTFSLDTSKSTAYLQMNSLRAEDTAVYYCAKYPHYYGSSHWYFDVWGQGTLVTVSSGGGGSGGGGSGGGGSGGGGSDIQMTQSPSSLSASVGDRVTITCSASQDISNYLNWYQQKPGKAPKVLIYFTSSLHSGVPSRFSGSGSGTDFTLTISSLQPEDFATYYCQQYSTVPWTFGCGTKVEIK
light: DIQMTQSPSSLSASVGDRVTITCRASESVDNYGISFMNWYQQKPGKAPKLLIYAASNQGSGVPSRFSGSGSGTDFTLTISSLQPEDFATYYCQQSKEVPWTFGGGTKVEIKRTVAAPSVFIFPPSDEQLKSGTASVVCLLNNFYPREAKVQWKVDNALQSGNSQESVTEQDSKDSTYSLSSTLTLSKADYEKHKVYACEVTHQGLSSPVTKSFNRGEC
notes: light: CQ1-3/1-11 VL-kappa; also called H010-F9

EC50 [1]: 0.093 nM
IC50 [2]: 4.5 nM
EC50 [3]: 4.9 nM
IC50 [4]: 0.056 nM
EC50 [5]: 5.77 nM
EC50 [6]: 0.093 nM
B2: HC010-F10 (trispecific antibody, human IgG4 S228P, kappa)
heavy: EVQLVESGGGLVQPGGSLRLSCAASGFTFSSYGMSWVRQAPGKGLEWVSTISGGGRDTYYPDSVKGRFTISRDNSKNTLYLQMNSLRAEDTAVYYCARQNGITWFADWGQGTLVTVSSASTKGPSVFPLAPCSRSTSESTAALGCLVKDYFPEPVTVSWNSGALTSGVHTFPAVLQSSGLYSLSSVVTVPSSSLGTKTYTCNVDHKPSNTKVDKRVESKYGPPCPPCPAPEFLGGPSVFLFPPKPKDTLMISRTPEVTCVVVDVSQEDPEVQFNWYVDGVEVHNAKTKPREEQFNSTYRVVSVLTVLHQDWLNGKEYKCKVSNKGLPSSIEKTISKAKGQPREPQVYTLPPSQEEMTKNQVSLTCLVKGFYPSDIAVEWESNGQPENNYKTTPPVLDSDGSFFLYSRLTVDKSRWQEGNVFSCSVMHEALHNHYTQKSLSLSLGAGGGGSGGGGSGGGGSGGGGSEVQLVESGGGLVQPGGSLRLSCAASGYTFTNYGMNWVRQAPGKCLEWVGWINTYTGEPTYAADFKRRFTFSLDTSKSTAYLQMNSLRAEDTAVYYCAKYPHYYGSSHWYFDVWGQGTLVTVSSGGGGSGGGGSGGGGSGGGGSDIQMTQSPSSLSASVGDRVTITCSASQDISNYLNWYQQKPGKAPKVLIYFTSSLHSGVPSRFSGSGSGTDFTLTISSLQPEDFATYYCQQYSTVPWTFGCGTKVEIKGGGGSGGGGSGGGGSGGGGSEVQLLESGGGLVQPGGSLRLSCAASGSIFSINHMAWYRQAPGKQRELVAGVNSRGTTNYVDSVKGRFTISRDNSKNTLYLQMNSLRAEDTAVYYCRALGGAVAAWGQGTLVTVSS
light: B1 light
notes: light: CQ1-3/1-11 VL-kappa; also called H010-F10
